Measured values as given in PMC11104707.

B1: N-terminal half of ubiquitin-fused talin head domain (N-Ub-THD), wild type [not stated] / integrin β3 transmembrane domain-tail fused to the C-terminal half of ubiquitin (C-Ub) [not stated] (parent)
chain 1: MVALSLKISIGNVVKTMQFEPSTMVYDACRMIRERIPEALAGPPNDFGLFLSDDDPKKGIWLEAGKALDYYMLRNGDTMEYRKKQRPLKIRMLDGTVKTIMVDDSKTVTDMLMTICARIGITNHDEYSLVRELMEEKKDEGTGTLRKDKTLLRDEKKMEKLKQKLHTDDELNWLDHGRTLREQGVEEHETLLLRRKFFYSDQNVDSRDPVQLNLLYVQARDDILNGSHPVSFDKACEFAGFQCQIQFGPHNEQKHKAGFLDLKDFLPKEYVKQKGERKIFQAHKNCGQMSEIEAKVRYVKLARSLKTYGVSFFLVKEKMKGKNKLVPRLLGITKECVMRVDEKTKEVIQEWSLTNIKRWAASPKSFTLDFGDYQDGYYSVQTTEGEQIAQLIAGYIDIILKKKKSKDHFGLEGDEESTMLEDSVSPKKSTVLQ
chain 2: ILVVLLSVMGAILLIGLAALLIWKLLITIHDRKEFAKFEEERARAKWDTANNPLYKEATSTFTNITYRGT

Variants of: B1
Test: mammalian two-hybrid (split-ubiquitin) assay, GFP expression read by flow cytometry
Details: with integrin β3 transmembrane domain-tail fused to the C-terminal half of ubiquitin (C-Ub); CHO cells stably incorporated with 5xGAL4-UAS and the integrin β3 TMD-tail construct; Empty control 0.23 %, N-Ub-THD(ΔF3) 1.96 %; parent: 7.9

Row | response (% GFP-expressing cells) | Variant
1 | 2.28 | chain 1 MVALSLKISIGNVVKTMQFEPSTMVYDACRMIRERIPEALAGPPNDFGLFLSDDDPKKGIWLEAGKALDYYMLRNGDTMEYRKKQRPLKIRMLDGTVKTIMVDDSKTVTDMLMTICARIGITNHDEYSLVRELMEEKKDEGTGTLRKDKTLLRDEKKMEKLKQKLHTDDELNWLDHGRTLREQGVEEHETLLLRRKFFYSDQNVDSRDPVQLNLLYVQARDDILNGSHPVSFDKACEFAGFQCQIQFGPHNEQKHKAGFLDLKDFLPKEYVKQKGERKIFQAHKNCGQMSEIEAKVRYVKLARSLKTYGVSFFLVKEKMKGDNKLVPRLLGITKECVMRVDEKTKEVIQEWSLTNIKRWAASPKSFTLDFGDYQDGYYSVQTTEGEQIAQLIAGYIDIILKKKKSKDHFGLEGDEESTMLEDSVSPKKSTVLQ [chain 1 K322D]
